Residue numbers refer to the chain shown, from its start. Values belong to the binder of their own block, whether it stands above or below them.
Columns and labels:
[1] = target: T1, human CD47 expressed at the surface of MKN-45 cells (human, UniProt Q08722 19-323); assay: CD47/SIRPα blocking assay on MKN-45 cells (carry CD47 and CEACAM5), imaging of bound SIRPα-mouseFc
T1 construct: whole, on cells; MKN-45 cells express both CD47 and CEACAM5; also called hCD47
Source text: The cell-based assay monitoring the interaction of soluble SIRPa with human CD47 expressed at the surface of MKN-45 cells as described below was used for the detection of the blocking activity. Concentration-response experiments with bispecific antibodies according to the invention allowed determination of inhibition curves (see FIG. 4) and of IC50 values (see Table 12).
MKN-45 cancer cells, expressing both CD47 and CEACAM5, were stained with CFSE violet to allow the imaging system (CX5) to detect the cells. Briefly, 3'000 stained MKN-45 cells per well were seeded in a 384 optical well plate (Costar) and incubated for 50 minutes with increased concentrations of bispecific antibodies of the invention ([…] to 333 nM, in quadruplicates). Then, a fixed concentration of SIRPα-mouseFc premixed with anti-mouse IgG-Fc AF647 coupled antibody (Jackson Immunoresearch diluted 1:2000) was added at 50 ng/mL final. After an incubation of 3 hours and 30 minutes, images of the fluorescence signals emitted by the detected bound SIRPa on the plates were acquired with the imaging system (CX5, Thermo Fisher). Fluorescence signals (mean fluorescence intensity MFI) were plotted according to the dose range tested, and IC50 was calculated by the software (Prism, GraphPad).

[2] = target: T2, human CEACAM5 on CEACAM5-expressing cancer cell lines (human, UniProt P06731 35-685); assay: flow cytometry on LoVo cells (carry CEACAM5 and CD47), PE anti-human IgG Fc
T2 construct: whole, on cells; also called CEACAM5 on SK-CO-1, MKN-45, HPAF-II, SNU-C1, Ls174T, LoVo cells
T2 sequence (looked up): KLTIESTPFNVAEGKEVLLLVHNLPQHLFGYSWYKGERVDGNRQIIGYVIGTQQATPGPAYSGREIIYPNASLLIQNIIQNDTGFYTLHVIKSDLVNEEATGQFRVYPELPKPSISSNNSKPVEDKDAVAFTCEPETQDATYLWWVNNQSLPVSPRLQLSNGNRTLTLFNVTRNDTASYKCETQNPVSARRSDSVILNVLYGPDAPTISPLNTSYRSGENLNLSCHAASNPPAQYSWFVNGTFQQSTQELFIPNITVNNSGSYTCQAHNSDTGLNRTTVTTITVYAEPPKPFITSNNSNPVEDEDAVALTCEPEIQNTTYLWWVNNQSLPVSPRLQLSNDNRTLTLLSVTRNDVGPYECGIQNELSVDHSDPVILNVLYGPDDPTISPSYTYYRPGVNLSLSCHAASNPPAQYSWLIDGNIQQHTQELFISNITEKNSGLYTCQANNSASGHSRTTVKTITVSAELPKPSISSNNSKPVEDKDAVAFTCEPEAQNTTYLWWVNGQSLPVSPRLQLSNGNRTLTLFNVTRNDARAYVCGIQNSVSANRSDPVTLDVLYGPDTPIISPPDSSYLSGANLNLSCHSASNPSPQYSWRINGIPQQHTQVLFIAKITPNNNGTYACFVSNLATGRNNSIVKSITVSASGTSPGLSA
Procedure: (§1) The binding of CD47×CEACAM5 bispecific antibodies was tested on CEACAM5-expressing human gastric adenocarcinoma cells (e.g. MKN-45), on CEACAM5-expressing human colorectal cancer cells (SK-CO-1, SNU-C1, Ls174T, and LoVo), and on CEACAM5-expressing pancreatic adenocarcinoma cells (HPAF-II).
(§2) Cells were harvested, counted, checked for viability and resuspended at 3×10⁶ cells/ml in FACS buffer (PBS 2% BSA, 0.1% NaN3). 100 μl of the cell suspension was distributed in V-bottom 96-well plates (3×10⁵ cells/well). The supernatant was removed by centrifugation 3 minutes at 4° C., 1300 rpm. Increasing concentrations of the antibody according to the invention were then added into the wells and incubated for 15 minutes at 4° C. Cells were washed twice with cold FACS buffer and re-incubated for further 15 minutes at 4° C. with the PE (R-phycoerythrin)-conjugated mouse anti-human IgG Fc secondary antibody (SouthernBiotech, pre-diluted 1:100 in FACS buffer). Cells were washed twice with cold FACS buffer and resuspended in 300 μl FACS buffer with 1:15000-diluted SytoxBlue (Life Technologies). Fluorescence, specifically mean fluorescence […] (MFI), was determined using a Cytoflex […] flow cytometer. Binding curves and […] and Emax values were obtained and calculated using GraphPad Prism7 software.

[3] = target: T2, human CEACAM5 on CEACAM5-expressing …; assay: flow cytometry on MKN-45 cells (carry CEACAM5 and CD47), PE anti-human IgG Fc
Procedure: as §1, §2

[4] = target: T2, human CEACAM5 on CEACAM5-expressing …; assay: flow cytometry on SK-CO-1 cells (carry CEACAM5 and CD47), PE anti-human IgG Fc
Procedure: as §1, §2

[5] = target: T2, human CEACAM5 on CEACAM5-expressing …; assay: flow cytometry on Ls174T cells (carry CEACAM5 and CD47), PE anti-human IgG Fc
Procedure: as §1, §2

[6] = target: T2, human CEACAM5 on CEACAM5-expressing …; assay: flow cytometry on SNU-C1 cells (carry CEACAM5 and CD47), PE anti-human IgG Fc
Procedure: as §1, §2

[7] = target: T2, human CEACAM5 on CEACAM5-expressing …; assay: flow cytometry on HPAF-II cells (carry CEACAM5 and CD47), PE anti-human IgG Fc
Procedure: as §1, §2

T1 sequence (Q08722 19-323): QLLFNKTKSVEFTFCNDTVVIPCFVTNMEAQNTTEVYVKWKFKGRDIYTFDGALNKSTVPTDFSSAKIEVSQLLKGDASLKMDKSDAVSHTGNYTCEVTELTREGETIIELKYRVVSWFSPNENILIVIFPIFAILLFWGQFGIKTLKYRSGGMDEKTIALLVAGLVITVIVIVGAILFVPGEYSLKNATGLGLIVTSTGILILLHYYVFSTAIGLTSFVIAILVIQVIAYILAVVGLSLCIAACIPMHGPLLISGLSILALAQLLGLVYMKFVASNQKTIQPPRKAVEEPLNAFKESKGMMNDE

- IC50 [1]: 0.07 nM
- EC50 [2]: 22 nM
- Emax (MFI) [2]: 260000 MFI
- EC50 [3]: 10 nM
- Emax (MFI) [3]: 1.18e+06 MFI
- EC50 [4]: 17.3 nM
- Emax (MFI) [4]: 900000 MFI
- EC50 [5]: 11.3 nM
- Emax (MFI) [5]: 77000 MFI
- EC50 [6]: 4.4 nM
- Emax (MFI) [6]: 280000 MFI
- EC50 [7]: 11.3 nM
- Emax (MFI) [7]: 940000 MFI
B1: K2AC82 (bispecific antibody, human IgG1, kappa, lambda)
heavy: not shown
light 1: QSVLTQPPSVSAAPGQKVTISCSGSSSNIGYGLVSWYQQLPGTAPKLLIYGINKRPSGIPDRFSGSKSGTSATLGITGLQTGDEADYYCGTWDFSYRVDFGGGTKLTVLGQPKAAPSVTLFPPSSEELQANKATLVCLISDFYPGAVTVAWKADSSPVKAGVETTTPSKQSNNKYAASSYLSLTPEQWKSHRSYSCQVTHEGSTVEKTVAPTECS
light 2: not shown
notes: Kappa-lambda body; also called CD47xCEACAM5 bispecific antibody K2AC82; AC82 (CEACAM5 arm)

- IC50 [1]: 0.05 nM
- EC50 [2]: 16 nM
- Emax (MFI) [2]: 380000 MFI
- EC50 [3]: 8 nM
- Emax (MFI) [3]: 1.64e+06 MFI
- EC50 [4]: 12.7 nM
- Emax (MFI) [4]: 1.3e+06 MFI
- EC50 [5]: 6 nM
- Emax (MFI) [5]: 100000 MFI
- EC50 [6]: 2.53 nM
- Emax (MFI) [6]: 400000 MFI
B2: K2AC91 (bispecific antibody, human IgG1, kappa, lambda)
heavy: not shown
light 1: B1 light 1 with Y31I, G51T, I52V, K54N, W92F, R97G, V98I, D99V
light 2: not shown
notes: Kappa-lambda body; also called CD47xCEACAM5 bispecific antibody K2AC91; AC91 (CEACAM5 arm)

- IC50 [1]: 0.08 nM
- EC50 [2]: 20 nM
- Emax (MFI) [2]: 320000 MFI
- EC50 [3]: 8 nM
- Emax (MFI) [3]: 1.35e+06 MFI
- EC50 [4]: 14.7 nM
- Emax (MFI) [4]: 1.1e+06 MFI
- EC50 [5]: 6.7 nM
- Emax (MFI) [5]: 70000 MFI
- EC50 [6]: 3.13 nM
- Emax (MFI) [6]: 370000 MFI
- EC50 [7]: 7.3 nM
- Emax (MFI) [7]: 1.2e+06 MFI
B3: K2AC117 (bispecific antibody, human IgG1, kappa, lambda)
heavy: not shown
light 1: B1 light 1 with Y31I, G51N, I52G, K54V
light 2: not shown
notes: Kappa-lambda body; also called CD47xCEACAM5 bispecific antibody K2AC117; AC117 (CEACAM5 arm)
